The results in this text go back to patent publication US20230212267A1 (WISTAR INSTITUTE OF ANATOMY AND BIOLOGY, published 2023).

Test [1] deals with SARS-CoV-2 Spike protein on pseudovirus (wild type) (SARS-CoV-2, UniProt P0DTC2 14-1273). The experiment in a line: cell-based or functional assay.
The target in test [2] is recombinant SARS-CoV-2-RBD (Sino Biological) (SARS-CoV-2, UniProt P0DTC2 319-541).
Test [3] addresses T1, recombinant SARS-CoV-2 receptor binding domain (RBD) (Examples 1 and 2) (SARS-CoV-2, UniProt P0DTC2 319-541).
T1 construct: also called SARS-CoV-2 RBD
The experiment in a line: ELISA, axis RBD Binding (OD450), D14 sera of mice given the S309 DMAb.

Test [4] has as its target T2, recombinant SARS-CoV-2 S1 (Examples 1 and 2) (SARS-CoV-2, UniProt P0DTC2 16-685).
T2 construct: domain: Subunit 1 (S1); also called Subunit 1 (S1) domain; S1 domains
The test is described as follows: ELISA with sera of DMAb-treated mice.

Test [5] deals with T1, recombinant SARS-CoV-2 receptor binding …. The test is described as follows: ELISA, axis RBD Binding (OD450), serial dilutions of in vitro expressed DMAb. (In general: In an ELISA, binding on a coated surface is turned into a signal by an enzyme label.)

B1: WCoVA9 (antibody, V domains shown)
VH: EVQLQQSGAELVKPGASVKLSCTASGFNIKDTYMHWVKQRPEQGLEWIGRIDPANGNTKYDPKFQAKATITANTSSNTAYLHLSSLTSEDTAVYYCAPYYDYVGAMDYWGQGTSVTVSS
VL: DIQMTQSPASQSASLGESVTITCLASQTIGTWLAWYQQKPGKSPQLLIYAATSLADGVPSRFSGSGSGTKFSFKISSLQAEDFVSYYCQQLYNTPLTFGGGTKLEIK
For orientation: Kd means a measure of binding affinity in units of concentration. A word on the koff: it is the first-order rate constant of dissociation. Usually kon stands for the second-order rate constant of association. Take B1: the “IC50, pseudovirus neutralization (wild type virus)” value in test [1] worked out at 4.9 ng/mL. Moreover, in test [2], the Kd was 0.042 nM, the koff stood at 1.9e-05 s⁻¹, the association rate constant (kon) is 470000 M⁻¹ s⁻¹ and the t1/2 is 10.1 h.

B2: S309 SARS-CoV-2 DMAb (antibody, V domains shown)
VH: QVQLVQSGAEVKKPGASVKVSCKASGYTFTSYGISWVRQAPGQGLEWMGWISAYNGNTNYAQKLQGRVTMTTDTSTSTAYMELRSLRSDDTAVYYCARDYTRGAWFGESLIGGFDNWGQGTLVTVSA
VL: EIVLTQSPGTLSLSPGERATLSCRASQSVSSSYLAWYQQKPGQAPRLLIYGASSRATGIPDRFSGSGSGTDFTLTISRLEPEDFAVYYCQQHDTSLTFGQGTKVEIKR
notes: also called S309 DMAb
B2: the binding result in test [3] is listed as “binds”.

B3: WCoVA7 (antibody, V domains shown)
VH: EVKLLESGGGLVQPGGSLKLSCAASGFDFSRYWMSWVRQAPGKGLEWIGEINPDSSTINYTPSLKDKFIISRDNAKNTLYLQMSKVRSEDTALYYCARIYYGSPGAMDYWGQGTSVTVSS
VL: SIVMTQTPKFLLVSAGDRVTITCKASQSVSNDVAWYQQKPGQSPKLLIYYASNRYTGVPDRFTGSGYGTDFTFTISTVQAEDLAVYFCQQDYFSPYTFGGGTKLEIK
For B3, the “IC50, pseudovirus neutralization (wild type virus)” value in test [1] turned out to be 2.6 ng/mL. Further, in test [2], the Kd turned out to be 0.28 nM, the koff was 9.3e-05 s⁻¹, the kon worked out at 330000 M⁻¹ s⁻¹ and the t1/2 is 2.07 h.

B4: 2381 DMAb (antibody)
heavy: not shown
light: EVVLTQSPGTLSLSPGERATLSCRASQSVSSSYLAWYQQKPGQAPRLLIYGASSRATGIPDRFSGSGSGTDFTLTISRLEPEDFAVYHCQHFGSSSQWTFGQGTKVEIKRTVAAPSVFIFPPSDEQLKSGTASVVCLLNNFYPREAKVQWKVDNALQSGNSQESVTEQDSKDSTYSLSNTLTLSKADYEKHKVYACEVTHQGLSSPVTKSFNRGEC
As for B4, the binding result in test [4] is given as “binds”.

B5: 2196 DMAb (antibody, V domains shown)
VH: QMQLVQSGPEVKKPGTSVKVSCKASGFTFTSSAVQWVRQARGQRLEWIGWIAVGSGNTNYAQKFQERVSITRDMSTSTAYMELSSLRSEDTAVYYCAAPYCSSISCNDGFDIWGQGTKVTVSS
VL: EVVLTQSPGTLSLSPGERATLSCRASQSVSSSYLAWYQQKPGQAPRLLIYGASSRATGIPDRFSGSGSGTDFTLTISRLEPEDFAVYHCQHYGSSSQWTFGQGTKVEIKR
notes: also called 2196 WT DMAb
For B5, the binding result in test [5] and in test [4] was “binds” throughout.

B6: 2381 (G) (antibody)
heavy: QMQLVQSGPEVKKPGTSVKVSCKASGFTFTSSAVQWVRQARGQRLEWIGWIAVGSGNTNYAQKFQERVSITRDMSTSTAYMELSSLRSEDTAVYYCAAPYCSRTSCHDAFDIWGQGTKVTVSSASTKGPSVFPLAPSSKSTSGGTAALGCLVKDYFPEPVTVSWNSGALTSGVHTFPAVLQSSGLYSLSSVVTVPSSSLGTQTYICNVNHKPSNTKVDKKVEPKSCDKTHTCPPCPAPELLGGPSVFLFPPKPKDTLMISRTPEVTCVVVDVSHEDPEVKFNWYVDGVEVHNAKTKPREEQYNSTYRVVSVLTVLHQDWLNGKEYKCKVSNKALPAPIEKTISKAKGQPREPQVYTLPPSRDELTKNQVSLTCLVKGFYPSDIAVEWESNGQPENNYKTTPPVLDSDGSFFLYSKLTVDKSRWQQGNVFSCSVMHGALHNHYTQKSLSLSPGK
light: EVVLTQSPGTLSLSPGERATLSCRASQSVSSSYLAWYQQKPGQAPRLLIYGASSRATGIPDRFSGSGSGTDFTLTISRLEPEDFAVYHCQHFGSSSQWTFGQGTKVEIKRTVAAPSVFIFPPSDEQLKSGTASVVCLLNNFYPREAKVQWKVDNALQSGNSQESVTEQDSKDSTYSLSNTLTLSKADYEKHKVYACEVTHQGLSSPVTKSFNRGEC
In the case of B6, the binding result in test [5] is “binds”.

B7: 2381 (GK) (antibody)
heavy: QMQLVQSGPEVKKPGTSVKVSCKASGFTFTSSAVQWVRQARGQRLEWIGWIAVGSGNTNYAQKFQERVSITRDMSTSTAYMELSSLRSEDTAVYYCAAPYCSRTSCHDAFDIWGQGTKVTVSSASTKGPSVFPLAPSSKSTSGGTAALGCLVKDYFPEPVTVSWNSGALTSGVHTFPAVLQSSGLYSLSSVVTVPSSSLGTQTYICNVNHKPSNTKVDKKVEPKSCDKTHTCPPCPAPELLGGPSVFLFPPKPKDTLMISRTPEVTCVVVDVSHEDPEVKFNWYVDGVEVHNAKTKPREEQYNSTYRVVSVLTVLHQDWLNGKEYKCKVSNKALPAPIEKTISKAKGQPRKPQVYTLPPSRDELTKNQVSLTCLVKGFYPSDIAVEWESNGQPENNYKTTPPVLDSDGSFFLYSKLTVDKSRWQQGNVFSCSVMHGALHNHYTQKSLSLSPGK
light: EVVLTQSPGTLSLSPGERATLSCRASQSVSSSYLAWYQQKPGQAPRLLIYGASSRATGIPDRFSGSGSGTDFTLTISRLEPEDFAVYHCQHFGSSSQWTFGQGTKVEIKRTVAAPSVFIFPPSDEQLKSGTASVVCLLNNFYPREAKVQWKVDNALQSGNSQESVTEQDSKDSTYSLSNTLTLSKADYEKHKVYACEVTHQGLSSPVTKSFNRGEC
With B7, the binding result in test [5] is “binds”.
